Test results from patent US20260266848A1, “COMPOSITIONS AND METHODS FOR DIAGNOSING AND TREATING DYSTONIA” (Duke University, priority 2023, published 2026).

Experiments:
WT MEF EVs = test: Quantitative LC-MS/MS proteomics of EVs from ISRIB-treated WT MEF cultures; format: cell-based, mouse; set-up: key to ISRIB and DYT Parallel Direction / ISRIB and DYT Parallel Direction, Ctdsp1 / ISRIB and DYT Parallel Direction, Pcdh19 / ISRIB and DYT Parallel Direction, Tspan7 / ISRIB and DYT Parallel Direction, Myo1e / ISRIB and DYT Parallel Direction, Plpp3 / ISRIB and DYT Parallel Direction, Sh3bp4 / ISRIB and DYT Parallel Direction, Dnajc7 / ISRIB and DYT Parallel Direction, Drg1 / ISRIB and DYT Parallel Direction, Maea: YES = protein abundance effect similar to DYT/WT; conditions: EV protein abundance; for WT + ISRIB/WT Cohen's d: ISRIB-treated WT vs WT; for ISRIB and DYT Parallel Direction: WT + ISRIB vs WT, direction compared with DYT/WT
DYT-TOR1A MEF EVs = test: Quantitative LC-MS/MS proteomics of EVs from drug-treated DYT-TOR1A MEF cultures (ritonavir, salubrinal); format: cell-based, mouse; set-up: key to RTV Corrective Direction / RTV Corrective Direction, Grwd1 / RTV Corrective Direction, Srrm2 / RTV Corrective Direction, Rbm17 / RTV Corrective Direction, Dcaf8 / RTV Corrective Direction, Edil3 / RTV Corrective Direction, Timp3 / RTV Corrective Direction, Heatr3 / RTV Corrective Direction, Brd4 / RTV Corrective Direction, P3h4 / RTV Corrective Direction, Pacsin3 / RTV Corrective Direction, Naa50 / RTV Corrective Direction, Lpar6 / RTV Corrective Direction, Ndrg1 / RTV Corrective Direction, Kntc1 / RTV Corrective Direction, Cdk11b / RTV Corrective Direction, Sumo1 / RTV Corrective Direction, Lsm4 / RTV Corrective Direction, Hmga2 / RTV Corrective Direction, Cstf1 / RTV Corrective Direction, Tes / RTV Corrective Direction, Sbno1 / RTV Corrective Direction, Unc119b / RTV Corrective Direction, Cfdp1 / RTV Corrective Direction, Sec61b: YES = protein abundance effect opposite to DYT/WT; conditions: EV protein abundance; for RTV Corrective Direction: DYT + RTV (ritonavir) vs DYT, direction compared with DYT/WT; for DYT + RTV/DYT Cohen's d: ritonavir (RTV)-treated DYT vs DYT

Row | Molecule | WT + ISRIB/WT Cohen's d (WT MEF EVs) | ISRIB and DYT Parallel Direction (WT MEF EVs) | RTV Corrective Direction (DYT-TOR1A MEF EVs) | DYT + RTV/DYT Cohen's d (DYT-TOR1A MEF EVs)
1 | Vps26b (protein, UniProt Q8C0E2 1-336, looked up) Vacuolar protein …: MSFFGFGQSVEVEILLNDAESRKRAEHKTEDGKKEKYFLFYDGETVSGKVSLSLKNPNKRLEHQGIKIEFIGQIELYYDRGNHHEFVSLVKDLARPGEITQSQAFDFEFTHVEKPYESYTGQNVKLRYFLRATISRRLNDVVKEMDIVVHTLSTYPELNSSIKMEVGIEDCLHIEFEYNKSKYHLKDVIVGKIYFLLVRIKIKHMEIDIIKRETTGTGPNVYHENDTIAKYEIMDGAPVRGESIPIRLFLAGYELTPTMRDINKKFSVRYYLNLVLIDEEERRYFKQQEVVLWRKGDIVRKSMSHQAAIASQRFEGTTSLGEVRTPGQLSDNNSRQ | −1.43 | YES | YES | 3.01
2 | Copg2 (protein, UniProt Q9QXK3 1-871, looked up) Coatomer subunit gamma-2: MIKKFDKKDEESGSGSNPFQHLEKSAVLQEARIFNETPINPRRCLHILTKILYLLNQGEHFGTMEATEAFFAMTRLFQSNDQTLRRMCYLTIKEMATISEDVIIVTSSLTKDMTGKEDVYRGPAIRALCRITDGTMLQAVERYMKQAIVDKVSSVASSALVSSLHMMKISYDVVKRWINEAQEAASSDNIMVQYHALGVLYHLRKNDRLAVSKMLNKFTKSGLKSQFAYCMLIRIASRLLKESEDGHESPLFDFIESCLRNKHEMVIYEAASAIIHLPNCTARELAPAVSVLQLFCSSPKPALRYAAVRTLNKVAMKHPSAVTACNLDLENLITDSNRSIATLAITTLLKTGSESSVDRLMKQISSFVSEISDEFKVVVVQAISALCHKYPRKHSVMMTFLSNMLRDDGGFEYKKAIVDCIISIVEENPESKEAGLAHLCEFIEDCEHTVLATKILHLLGKEGPRTPVPSKYIRFIFNRVVLENEAVRAAAVSALAKFGAQNESLLPSILVLLQRCMMDTDDEVRDRATFYLNVLQQRQMALNATYIFNGLTVSIPGMEKALHQYTLEPSEKPFDMKSIPLAMAPVFEQKSEITLVTPKPEKLAPSRQDIFQEQLAAIPEFMNLGPLFKSSEPVQLTEAETEYFVRCVKHMFTDHIVFQFDCTNTLNDQLLEKVTVQMEPSDSYEVLCCIPAPSLPYNQPGICYTLVRLPDEDPTAVAGTFSCTMKFTVRDCDPNTGVPDEDGYDDEYVLEDLEVTVSDHIQKILKPNFAAAWEEVGDAFEKEETFALSSTKTLEEAVNNIITFLGMQPCERSDKVPENKNSHSLYLAGVYRGGYDLLVRSRLALADGVTMQVTVRSKERTPVDVILASVG | −0.44 | YES | YES | 3.05
3 | Megf10 (protein, UniProt Q6DIB5 26-1147, looked up) Multiple epidermal growth …: LNLEDPNVCSHWESYSVTVQESYPHPFDQIYYTSCTDILNWFKCTRHRISYRTAYRHGEKTMYRRKSQCCPGFYESRDMCVPHCADKCVHGRCIAPNTCQCEPGWGGTNCSSACDGDHWGPHCSSRCQCKNRALCNPITGACHCAAGYRGWRCEDRCEQGTYGNDCHQRCQCQNGATCDHITGECRCSPGYTGAFCEDLCPPGKHGPHCEQRCPCQNGGVCHHVTGECSCPSGWMGTVCGQPCPEGRFGKNCSQECQCHNGGTCDAATGQCHCSPGYTGERCQDECPVGSYGVRCAEACRCVNGGKCYHVSGTCLCEAGFSGELCEARLCPEGLYGIKCDKRCPCHLDNTHSCHPMSGECGCKPGWSGLYCNETCSPGFYGEACQQICSCQNGADCDSVTGRCACAPGFKGTDCSTPCPLGRYGINCSSRCGCKNDAVCSPVDGSCICKAGWHGVDCSIRCPSGTWGFGCNLTCQCLNGGACNTLDGTCTCAPGWRGAKCEFPCQDGTYGLNCAERCDCSHADGCHPTTGHCRCLPGWSGVHCDSVCAEGRWGPNCSLPCYCKNGASCSPDDGICECAPGFRGTTCQRICSPGFYGHRCSQTCPQCVHSSGPCHHITGLCDCLPGFTGALCNEVCPSGRFGKNCAGVCTCTNNGTCNPIDRSCQCYPGWIGSDCSQPCPPAHWGPNCIHTCNCHNGAFCSAYDGECKCTPGWTGLYCTQRCPLGFYGKDCALICQCQNGADCDHISGQCTCRTGFMGRHCEQKCPAGTYGYGCRQICDCLNNSTCDHITGTCYCSPGWKGARCDQAGVIIVGNLNSLSRTSTALPADSYQIGAIAGIVVLVLVVLFLLALFIIYRHKQKRKESSMPAVTYTPAMRVINADYTIAETLPHSNGGNANSHYFTNPSYHTLSQCATSPHVNNRDRMTIAKSKNNQLFVNLKNVNPGKRGTLVDCTGTLPADWKQGGYLNELGAFGLDRSYMGKSLKDLGKNSEYNSSTCSLSSSENPYATIKDPPALLPKSSECGYVEMKSPARRDSPYAEINNSTPANRNVYEVEPTVSVVQGVFSNSGHVTQDPYDLPKNSHIPCHYDLLPVRDSSSSPKREDGGGSNSTSSNSTSSSSSSSE | 1.37 | YES | YES | −2.80
4 | Picalm (protein, UniProt Q7M6Y3 2-660, looked up) Phosphatidylinositol-binding …: SGQSLTDRITAAQHSVTGSAVSKTVCKATTHEIMGPKKKHLDYLIQCTNEMNVNIPQLADSLFERTTNSSWVVVFKSLITTHHLMVYGNERFIQYLASRNTLFNLSNFLDKSGLQGYDMSTFIRRYSRYLNEKAVSYRQVAFDFTKVKRGADGVMRTMNTEKLLKTVPIIQNQMDALLDFNVNSNELTNGVINAAFMLLFKDAIRLFAAYNEGIINLLEKYFDMKKNQCKEGLDIYKKFLTRMTRISEFLKVAEQVGIDRGDIPDLSQAPSSLLDALEQHLASLEGKKIKDSTAASRATTLSNAVSSLASTGLSLTKVDEREKQAALEEEQARLKALKEQRLKELAKKPHTSLTTAASPVSTSAGGIMTAPAIDIFSTPSSSNSTSKLPNDLLDLQQPTFHPSVHAMSAAPQGASTWGDPFSATLDAVEDAIPSLNPFLTKSSGDVHLPIASDVSTFTTRTPTHEMFVGFSPSPVAQPHSSAGLNVDFESVFGNKSTNVAVDSGGFDELGGLLKPTVASQNQSLPVAKLPPNKLVSDDLDSSLANLVGNLGIGNGTTKNDVSWSQPGEKKLTGGSNWQPKVAPTTAWSAATMNGMHFPQYAPPVMAYPATTPTGMIGYGIPPQMGSVPVMTQPTLIYSQPVMRPPNPFGPVSGAQIQFM | −1.01 | YES | YES | 2.85
5 | Ankfy1 (protein, UniProt Q810B6 2-1169, looked up) Rabankyrin-5: AEEEVAKLEKHLMLLRQEYVKLQKKLAETEKRCTLLAAQANKENSNESFISRLLAIVAGLYEQEQYSDLKIKVGDRHISAHKFVLAARSDSWSLANLSSTEEIDLSDANPEVTMTMLRWIYTDELEFREDDVFLTELMKLANRFQLQLLRERCEKGVMSLVNVRNCIRFYQTAEELNASTLMNYCAEIIASHWDDLRKEDFSSLSAQLLYKMIKSKTEYPLHKAIKVEREDVVFLYLIEMDSQLPGKLNETDHNGDLALDLALSRRLESIATTLVSHKADVDMVDKNGWSLLHKGIQRGDLFASTFLIKNGALVNAATAGAQETPLHLVALYSPKKYSADVMSEMAQIAEALLQAGANPNMQDSKGRTPLHLSIMARNDCVFSQLLQCKQLDLELKDHEGSTALWLAVQYITVSSDQSVNPFEDLPVVNGTSFDENSFAARLIQRGSNTDAPDVMTGNCLLQRAAGAGNEAAALFLATSGAHANHRNKWGETPLHTACRHGLANLTAELLQQGANPNLQTEEALPVPKESPVLMSSADSIYLQTPLHMAIAYNHPDVVSVILEQKANALHATNNLQIIPDFSLKDSRDQTVLGLALWTGMHTIAAQLLGSGASINDTMSDGQTLLHMAIQRQDSKSALFLLEHQADINVRTQDGETALQLAIKHQLPLVVDAICTRGADMSVPDEKGNPPLWLALASNLEDIASTLVRHGCDATCWGPGPSGCLQTLLHRAVDENNESTACFLIRSGCDVNSPRQPGTNGEGEEEARDGQTPLHLAASWGLEETVQCLLEFGANVNAQDAEGRTPVHVAISNQHSVIIQLLISHPNIELSVRDRQGLTPFACAMTYKNNKAAEAILKRESGAAEQVDNKGRNFLHVAVQNSDIESVLFLISVQANVNSRVQDASKLTPLHLAVQAGSEIIVRNLLLAGAKVNELTKHRQTALHLAAQQDLPTICSVLLENGVDFAAVDENGNNALHLAVMHGRLNNIRALLTECTVDAEAFNLRGQSPLHILGQYGKENAAAIFDLFLECMPEYPLDKPDAEGNTVLLLAYMKGNANLCRAIVRSGVRLGVNNNQGVNIFNYQVATKQLLFRLLDMLSKEPPWCDGSNCYECTAKFGVTTRKHHCRHCGRLLCHKCSTKEIPIIKFDLNKPVRVCNICFDVLTLGGVS | −1.45 | YES | YES | 2.86
6 | Wars (protein, UniProt P32921 1-481, looked up) Tryptophan--tRNA ligase, …: MADMPSGESCTSPLELFNSIATQGELVRSLKAGNAPKDEIDSAVKMLLSLKMSYKAAMGEEYKAGCPPGNPTAGRNCDSDATKASEDFVDPWTVRTSSAKGIDYDKLIVQFGSSKIDKELINRIERATGQRPHRFLRRGIFFSHRDMNQILDAYENKKPFYLYTGRGPSSEAMHLGHLVPFIFTKWLQDVFNVPLVIQMSDDEKYLWKDLTLEQAYSYTVENAKDIIACGFDINKTFIFSDLEYMGQSPGFYRNVVKIQKHVTFNQVKGIFGFTDSDCIGKISFPAVQAAPSFSNSFPKIFRDRTDIQCLIPCAIDQDPYFRMTRDVAPRIGHPKPALLHSTFFPALQGAQTKMSASDPNSSIFLTDTAKQIKSKVNKHAFSGGRDTVEEHRQFGGNCEVDVSFMYLTFFLEDDDRLEQIRKDYTSGAMLTGELKKTLIDVLQPLIAEHQARRKAVTEETVKEFMTPRQLSFHFQCFCFDT | −1.03 | YES | YES | 4.38
